Experimental data as given in patent US20210388110A1.

Legend:
[1] = target: extracellular matrix (BD Matrigel); experiment: ECL on Matrigel-coated plate, relative to MRAH-G1d/MRAL-k0
[2] = target: Mab Select SuRe Ligand; experiment: SPR (Biacore T200), SuRe ligand on CM5 chip, antibody 5 ug/mL

Binder	ECM binding ratio (standard = 1) [1]	SuRe binding (RU) [2]
TR01H040-E2702GsKsc/H0610-E2704sEpsc/L0208-k0 (bispecific antibody, human IgG4 S228P, kappa, N297A) heavy 1: QVQLVESGGGLVQPGRSLRLSCAASGFTFSNAWMHWVRQAPGKGLEWVAQIKDKSQNYATYYAESVKGRFTISRADSKNSIYLQMNSLKTEDTAVYYCRYVHYSASYGVDAWGQGTTVTVSSASTKGPSVFPLAPCSRSTSESTAALGCLVKDYFPEPVTVSWNSGALTSGVHTFPAVLQSSGLYSLSSVVTVPSSSLGTKTYTCNVDHKPSNTKVDKRVESKYGPPCPPCPAPEFRGGPKVFLFPPKPKDTLMISRTPEVTCVVVDVSQEDPEVQFNWYVDGVEVHNAKTKPREEQFASTYRVVSVLTVLHQDWLNGKEYKCKVSNKGLPSSIEKTISKAKGQPREPQVYTLPPSQKEMTKNQVSLTCLVKGFYPSDIAVEWESNGQPENNYKTTPPVLDSDGSFFLYSKLTVDKSRWQEGNVFSCSVMHEALHNRYTQKSLSLSP heavy 2: QVQLVQSGAEVKKPGASVKVSCKASGYTFTDYEMHWIRQPPGQGLEWIGAIDGKTPDTAYSQKFKGRVTLTADKSTSTAYMELSSLTSEDTAVYYCTRFYSYTYWGQGTLVTVSSASTKGPSVFPLAPCSRSTSESTAALGCLVKDYFPEPVTVSWNSGALTSGVHTFPAVLQSSGLYSLSSVVTVPSSSLGTQTYTCNVDHKPSNTKVDKRVESKYGPPCPPCPAPEFRGGPKVFLFPPKPKDTLMISRTPEVTCVVVDVSQEDPEVQFNWYVDGVEVHNAKTKPREEQFASTYRVVSVLTVLHQDWLNGKEYKCKVSNKGLPSSIEKTISKAKGQPREPQVYTLPPSQEEMTKNQVSLTCLVKGFYPSDIAVEWESNGQPENNYKTTPPVLDSDGSFFLYSKLTVDKSRWQEGNVFSCSVMHEALHNHYTQESLSLSP light: DIVMTQSPLSLPVTPGEPASISCRSSQSPVHSNRNTYLHWYQQKPGQAPRLLIYKVSNRFWGVPDRFSGSGSGTDFTLKISRVEAEDVGVYYCYQGTQVPYTFGQGTKLEIKRTVAAPSVFIFPPSDEQLKSGTASVVCLLNNFYPREAKVQWKVDNALQSGNSQESVTEQDSKDSTYSLSSTLTLSKADYEKHKVYACEVTHQGLSSPVTKSFNRGEC	50.4	
TR01H040-E2702GsKsc/H0610-E2704sEpsc/L0211-k0 (bispecific antibody, human IgG4 S228P, kappa, N297A) heavy 1: QVQLVESGGGLVQPGRSLRLSCAASGFTFSNAWMHWVRQAPGKGLEWVAQIKDKSQNYATYYAESVKGRFTISRADSKNSIYLQMNSLKTEDTAVYYCRYVHYSASYGVDAWGQGTTVTVSSASTKGPSVFPLAPCSRSTSESTAALGCLVKDYFPEPVTVSWNSGALTSGVHTFPAVLQSSGLYSLSSVVTVPSSSLGTKTYTCNVDHKPSNTKVDKRVESKYGPPCPPCPAPEFRGGPKVFLFPPKPKDTLMISRTPEVTCVVVDVSQEDPEVQFNWYVDGVEVHNAKTKPREEQFASTYRVVSVLTVLHQDWLNGKEYKCKVSNKGLPSSIEKTISKAKGQPREPQVYTLPPSQKEMTKNQVSLTCLVKGFYPSDIAVEWESNGQPENNYKTTPPVLDSDGSFFLYSKLTVDKSRWQEGNVFSCSVMHEALHNRYTQKSLSLSP heavy 2: QVQLVQSGAEVKKPGASVKVSCKASGYTFTDYEMHWIRQPPGQGLEWIGAIDGKTPDTAYSQKFKGRVTLTADKSTSTAYMELSSLTSEDTAVYYCTRFYSYTYWGQGTLVTVSSASTKGPSVFPLAPCSRSTSESTAALGCLVKDYFPEPVTVSWNSGALTSGVHTFPAVLQSSGLYSLSSVVTVPSSSLGTQTYTCNVDHKPSNTKVDKRVESKYGPPCPPCPAPEFRGGPKVFLFPPKPKDTLMISRTPEVTCVVVDVSQEDPEVQFNWYVDGVEVHNAKTKPREEQFASTYRVVSVLTVLHQDWLNGKEYKCKVSNKGLPSSIEKTISKAKGQPREPQVYTLPPSQEEMTKNQVSLTCLVKGFYPSDIAVEWESNGQPENNYKTTPPVLDSDGSFFLYSKLTVDKSRWQEGNVFSCSVMHEALHNHYTQESLSLSP light: DIVMTQSPLSLPVTPGEPASISCRSSQPPVHSNRNTYLHWYQQKPGQAPRLLIYKVSNRFSGVPDRFSGSGSGTDFTLKISRVEAEDVGVYYCYQGTQVPYTFGQGTKLEIKRTVAAPSVFIFPPSDEQLKSGTASVVCLLNNFYPREAKVQWKVDNALQSGNSQESVTEQDSKDSTYSLSSTLTLSKADYEKHKVYACEVTHQGLSSPVTKSFNRGEC	15.5	
TR01H097-E2702GsKsc/L0011-k0 (antibody, human IgG4 S228P, kappa, N297A, V domains shown) VH: QVQLVESGGGLVQPGRSLRLSCAASGFTFSNAWMHWVRQAPGKGLEWVAQIKDKSQNYALYYAESVKGRFTISRDDSKNSLYLQMNSLKTEDTAVYYCRYVHYAAGYGVDAWGQGTTVTVSS VL: DIVMTQSPLSLPVTPGEPASISCRSSQPLVHSNRNTYLHWYQQKPGQAPRLLIYKVSNRFSGVPDRFSGSGSGTDFTLKISRVEAEDVGVYYCGQGTQVPYTFGQGTKLEIKR		0.1 RU
TR01H106-E2702GsKsc/L0011-k0 (antibody, human IgG4 S228P, kappa, N297A, V domains shown) VH: QVQLVESGGGLVQPGRSLRLSCAASGFTFSNAWMHWVRQAPGKGLEWVAQIKDKSQNYATYPAESVKGRFTISRDDSKNSLYLQMNSLKTEDTAVYYCRYVHYAAGYGVDAWGQGTTVTVSS VL: DIVMTQSPLSLPVTPGEPASISCRSSQPLVHSNRNTYLHWYQQKPGQAPRLLIYKVSNRFSGVPDRFSGSGSGTDFTLKISRVEAEDVGVYYCGQGTQVPYTFGQGTKLEIKR		0 RU

Other lines, results leading:

ECM binding ratio (standard = 1) [1]	SuRe binding (RU) [2]	Binder
15.4		TR01H040-E2702GsKsc/H0610-E2704sEpsc/L0206-k0 (bispecific antibody, human IgG4 S228P, kappa, N297A) heavy 1: QVQLVESGGGLVQPGRSLRLSCAASGFTFSNAWMHWVRQAPGKGLEWVAQIKDKSQNYATYYAESVKGRFTISRADSKNSIYLQMNSLKTEDTAVYYCRYVHYSASYGVDAWGQGTTVTVSSASTKGPSVFPLAPCSRSTSESTAALGCLVKDYFPEPVTVSWNSGALTSGVHTFPAVLQSSGLYSLSSVVTVPSSSLGTKTYTCNVDHKPSNTKVDKRVESKYGPPCPPCPAPEFRGGPKVFLFPPKPKDTLMISRTPEVTCVVVDVSQEDPEVQFNWYVDGVEVHNAKTKPREEQFASTYRVVSVLTVLHQDWLNGKEYKCKVSNKGLPSSIEKTISKAKGQPREPQVYTLPPSQKEMTKNQVSLTCLVKGFYPSDIAVEWESNGQPENNYKTTPPVLDSDGSFFLYSKLTVDKSRWQEGNVFSCSVMHEALHNRYTQKSLSLSP heavy 2: QVQLVQSGAEVKKPGASVKVSCKASGYTFTDYEMHWIRQPPGQGLEWIGAIDGKTPDTAYSQKFKGRVTLTADKSTSTAYMELSSLTSEDTAVYYCTRFYSYTYWGQGTLVTVSSASTKGPSVFPLAPCSRSTSESTAALGCLVKDYFPEPVTVSWNSGALTSGVHTFPAVLQSSGLYSLSSVVTVPSSSLGTQTYTCNVDHKPSNTKVDKRVESKYGPPCPPCPAPEFRGGPKVFLFPPKPKDTLMISRTPEVTCVVVDVSQEDPEVQFNWYVDGVEVHNAKTKPREEQFASTYRVVSVLTVLHQDWLNGKEYKCKVSNKGLPSSIEKTISKAKGQPREPQVYTLPPSQEEMTKNQVSLTCLVKGFYPSDIAVEWESNGQPENNYKTTPPVLDSDGSFFLYSKLTVDKSRWQEGNVFSCSVMHEALHNHYTQESLSLSP light: DIVMTQSPLSLPVTPGEPASISCRSSQSPVHSNRNTYLHWYQQKPGQAPRLLIYKVSNRFSGVPDRFSGSGSGTDFTLKISRVEAEDVGVYYCYQGTQVPYTFGQGTKLEIKRTVAAPSVFIFPPSDEQLKSGTASVVCLLNNFYPREAKVQWKVDNALQSGNSQESVTEQDSKDSTYSLSSTLTLSKADYEKHKVYACEVTHQGLSSPVTKSFNRGEC
7.4		TR01H040-E2702GsKsc/H0610-E2704sEpsc/L0209-k0 (bispecific antibody, human IgG4 S228P, kappa, N297A) heavy 1: QVQLVESGGGLVQPGRSLRLSCAASGFTFSNAWMHWVRQAPGKGLEWVAQIKDKSQNYATYYAESVKGRFTISRADSKNSIYLQMNSLKTEDTAVYYCRYVHYSASYGVDAWGQGTTVTVSSASTKGPSVFPLAPCSRSTSESTAALGCLVKDYFPEPVTVSWNSGALTSGVHTFPAVLQSSGLYSLSSVVTVPSSSLGTKTYTCNVDHKPSNTKVDKRVESKYGPPCPPCPAPEFRGGPKVFLFPPKPKDTLMISRTPEVTCVVVDVSQEDPEVQFNWYVDGVEVHNAKTKPREEQFASTYRVVSVLTVLHQDWLNGKEYKCKVSNKGLPSSIEKTISKAKGQPREPQVYTLPPSQKEMTKNQVSLTCLVKGFYPSDIAVEWESNGQPENNYKTTPPVLDSDGSFFLYSKLTVDKSRWQEGNVFSCSVMHEALHNRYTQKSLSLSP heavy 2: QVQLVQSGAEVKKPGASVKVSCKASGYTFTDYEMHWIRQPPGQGLEWIGAIDGKTPDTAYSQKFKGRVTLTADKSTSTAYMELSSLTSEDTAVYYCTRFYSYTYWGQGTLVTVSSASTKGPSVFPLAPCSRSTSESTAALGCLVKDYFPEPVTVSWNSGALTSGVHTFPAVLQSSGLYSLSSVVTVPSSSLGTQTYTCNVDHKPSNTKVDKRVESKYGPPCPPCPAPEFRGGPKVFLFPPKPKDTLMISRTPEVTCVVVDVSQEDPEVQFNWYVDGVEVHNAKTKPREEQFASTYRVVSVLTVLHQDWLNGKEYKCKVSNKGLPSSIEKTISKAKGQPREPQVYTLPPSQEEMTKNQVSLTCLVKGFYPSDIAVEWESNGQPENNYKTTPPVLDSDGSFFLYSKLTVDKSRWQEGNVFSCSVMHEALHNHYTQESLSLSP light: DIVMTQSPLSLPVTPGEPASISCRSSQSPVHSNRNTYIHWYQQKPGQAPRLLIYKVSNRFSGVPDRFSGSGSGTDFTLKISRVEAEDVGVYYCYQGTQVPYTFGQGTKLEIKRTVAAPSVFIFPPSDEQLKSGTASVVCLLNNFYPREAKVQWKVDNALQSGNSQESVTEQDSKDSTYSLSSTLTLSKADYEKHKVYACEVTHQGLSSPVTKSFNRGEC
	-0.2 RU	TR01H095-E2702GsKsc/L0011-k0 (antibody, human IgG4 S228P, kappa, N297A, V domains shown) VH: QVQLVESGGGLVQPGRSLRLSCAASGFTFSNAWMHWVRQAPGKGLEWVAQIKDKSQNYAFYYAESVKGRFTISRDDSKNSLYLQMNSLKTEDTAVYYCRYVHYAAGYGVDAWGQGTTVTVSS VL: DIVMTQSPLSLPVTPGEPASISCRSSQPLVHSNRNTYLHWYQQKPGQAPRLLIYKVSNRFSGVPDRFSGSGSGTDFTLKISRVEAEDVGVYYCGQGTQVPYTFGQGTKLEIKR
